# Results reported in IntAct's records for PubMed 22677173.
# B1: Spermatogenesis-defective protein 39 homolog (Homo sapiens), Q9H9C1 (parent)
# chain: MNRTKGDEEEYWNSSKFKAFTFDDEDDELSQLKESKRAVNSLRDFVDDDDDDDLERVSWSGEPVGSISWSIRETAGNSGSTHEGREQLKSRNSFSSYAQLPKPTSTYSLSSFFRGRTRPGSFQSLSDALSDTPAKSYAPELGRPKGEYRDYSNDWSPSDTVRRLRKGKVCSLERFRSLQDKLQLLEEAVSMHDGNVITAVLIFLKRTLSKEILFRELEVRQVALRHLIHFLKEIGDQKLLLDLFRFLDRTEELALSHYREHLNIQDPDKRKEFLKTCVGLPFSAEDSAHIQDHYTLLERQIIIEANDRHLESAGQTEIFRKHPRKASILNMPLVTTLFYSCFYHYTEAEGTFSSPVNLKKTFKIPDKQYVLTALAARAKLRAWNDVDALFTTKNWLGYTKKRAPIGFHRVVEILHKNNAPVQILQEYVNLVEDVDTKLNLATKFKCHDVVIDTYRDLKDRQQLLAYRSKVDKGSAEEEKIDALLSSSQIRWKN
# partner: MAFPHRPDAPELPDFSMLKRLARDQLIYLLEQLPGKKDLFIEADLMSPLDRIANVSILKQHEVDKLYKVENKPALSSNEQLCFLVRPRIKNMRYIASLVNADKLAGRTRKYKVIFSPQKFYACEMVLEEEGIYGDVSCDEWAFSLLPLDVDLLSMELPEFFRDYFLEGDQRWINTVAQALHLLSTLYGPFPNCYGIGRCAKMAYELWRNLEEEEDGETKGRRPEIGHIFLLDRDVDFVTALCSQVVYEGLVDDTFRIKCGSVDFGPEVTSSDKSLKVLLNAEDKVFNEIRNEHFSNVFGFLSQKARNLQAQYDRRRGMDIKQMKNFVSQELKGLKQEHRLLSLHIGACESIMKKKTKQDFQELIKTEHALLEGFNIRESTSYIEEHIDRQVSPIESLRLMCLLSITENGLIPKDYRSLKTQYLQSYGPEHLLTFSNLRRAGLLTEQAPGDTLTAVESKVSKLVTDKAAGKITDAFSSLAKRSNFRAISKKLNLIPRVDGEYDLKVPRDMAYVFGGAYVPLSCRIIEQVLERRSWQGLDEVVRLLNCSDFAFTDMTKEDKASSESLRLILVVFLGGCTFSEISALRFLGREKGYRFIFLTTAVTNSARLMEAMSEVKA
# Variants of: B1
# Conditions: with vp33b_human VPS33B
row,Variant,effect of a mutation on the interaction
1,Y11F,increasing interaction
